Test [1] concerns the target cyclophilin A (CypA), human (UniProt P62937). As to the kind of experiment: ITC; recombinant CypA or Nup358Cyp against recombinant CA^NTD, without cyclosporine; done as described in ref. 25.
The target of test [2] is Nup358/RanBP2 cyclophilin domain (Nup358Cyp), human (human). The test is described as above.
Test [3] concerns the target cyclophilin A (CypA), human (UniProt P62937). As to the kind of experiment: ITC.

The results in this text go back to paper PMC3234246.

Sequence of cyclophilin A (CypA), human (P62937 whole entry, the tested form may be a part): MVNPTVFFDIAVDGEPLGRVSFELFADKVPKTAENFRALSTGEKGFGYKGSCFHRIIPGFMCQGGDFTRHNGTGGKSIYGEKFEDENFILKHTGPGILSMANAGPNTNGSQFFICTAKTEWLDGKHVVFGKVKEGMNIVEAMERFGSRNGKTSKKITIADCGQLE

As for “HIV-1 NL4.3 capsid N-terminal domain (CA^NTD), wild type (domain or fragment)”, the Kd in test [1] worked out at 7 µM; in test [2], 16 µM.
In test [3], “HIV-1 NL4.3 capsid N-terminal domain (CA^NTD), wild type N74D” returned an other: stoichiometry N of 0.8, an other: ΔH of -9.8 kcal/mol and an other: ΔS ((cal/mol)/deg) of -10.3.
Take “HIV-1 NL4.3 capsid N-terminal domain (CA^NTD), wild type P90A”: in test [3], the Kd was found to be 46 µM, the other: stoichiometry N turned out to be 0.8, the other: ΔH is -2.84 kcal/mol and the other: ΔS ((cal/mol)/deg) came to 9.8.
Turning to “HIV-1 capsid N-terminal domain (CA^NTD) mutant N57A (domain or fragment)”, the equilibrium dissociation constant (Kd) in test [1] was determined as 7 µM; in test [2] it was 55 µM.
“HIV-1 capsid N-terminal domain (CA^NTD) mutant N74D (domain or fragment)”: the dissociation constant Kd in test [2] stood at 95 µM.

Broadly, the Kd is the equilibrium constant for the complex coming apart.
